Oligonucleotides are written 5' to 3', each unit as a sugar letter and its base; * is a phosphorothioate linkage, no mark a phosphodiester; rarer units and linkages stand in square brackets, end groups in braces. Plain capitals give the bases only. r = 2'-OH (RNA); f = 2'-fluoro
What was measured:
[1] = target: T1, chymase (recombinant) (UniProt P23946 P23946:22-247); assay: inhibition; SPR ++; details: tags: SIGMA, expressed in yeast
T1 sequence: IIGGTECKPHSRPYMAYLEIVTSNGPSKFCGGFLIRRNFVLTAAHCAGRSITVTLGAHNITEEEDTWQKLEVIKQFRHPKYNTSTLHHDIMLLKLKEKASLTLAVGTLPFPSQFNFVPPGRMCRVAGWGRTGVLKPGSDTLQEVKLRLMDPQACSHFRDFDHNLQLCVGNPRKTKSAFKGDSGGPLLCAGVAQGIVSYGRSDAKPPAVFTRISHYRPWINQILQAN
Protocol: (§1) By detecting the fluorescence of this AMC, the enzyme activity of chymase can be determined. The assay was performed using a 96-well plate (F16 Black Maxisorp Fluoronunc, manufactured by Nunc), with a reaction mixture volume of 100 μL, in solution C as a buffer solution. First, each nucleic acid was serially diluted to 0.0027-2 μM concentrations in solution C to obtain 50 μL solutions. After 10 μL of the 1 mM substrate prepared in solution C was added thereto, the plate was set to the microplate reader SpectraMax190 (manufactured by Molecular Devices Corporation), and incubated at 37° C. for 5 minutes. Separately, 0.05 μg (or 0.005 μg) of chymase (recombinant, manufactured by SIGMA) was diluted in solution C to obtain a 40 μL chymase solution, and incubated at 37° C. for 5 minutes. The chymase solution was added to the mixture of the nucleic acid and substrate to initiate an enzyme reaction. The final chymase concentration in the reaction mixture was 16.7 nM (or 1.67 nM), the final substrate concentration being 100 μM. The plate containing the reaction mixture was set to the microplate reader SpectraMax190 (manufactured by Molecular Devices Corporation), and examined for time-dependent changes in the fluorescence intensity at 37° C. for 5 minutes (or 30 minutes) (excitation wavelength 380 nm, detection wavelength 460 nm). A linear approximation of the increase in the fluorescence of the AMC released from the substrate by chymase activity was generated, and its slope was taken as the initial velocity […]. For control, samples were treated and analyzed in the same manner in two cases: use of a 30N or 40N (a nucleotide of 30 or 40 consecutive bases represented by N; N is A, G, C or T) nucleic acid pool (negative control), and use of chymostatin, a known chymotrypsin-like serine protease inhibitor (positive control). Taking the initial reaction velocity without the nucleic acid and inhibitor (V_0) as a 100% enzyme activity, the inhibitory rate of each test substance was calculated using the following equation: […]
All nucleic acids of SEQ ID NO: 58-68 were prepared by chemical synthesis. Whether these nucleic acids are bound to chymase was assessed by surface plasmon resonance method in the same manner as in Example 4. The inhibitory activity on chymase was measured in the same manner as in Example 3.

[2] = target: T1, chymase (recombinant); assay: inhibition; SPR +; details: tags: SIGMA, expressed in yeast
Protocol: as §1, with “Here, Suc is a protecting succinyl group, and MCA is a 4-methylcoumaryl-7-amide group; upon cleavage of the C-terminal side of phenylalanine, AMC (7-amino-4-methyl-coumarine) is released. By” for “By”

[3] = target: T2, chymase (Homo sapiens, UniProt P23946 P23946:22-247); assay: SPR; stronger than 40N; solution A; details: tags: human skin mast cell, Calbiochem
T2 sequence: T1 sequence
Protocol: (§2) The binding activities against chymase of the nucleic acids shown by SEQ ID NO: 4-20 and 22-34 were determined by the surface plasmon resonance method using Biacore T100 (manufactured by GE Healthcare). The sensor chip used was the SA chip, which had streptavidin immobilized thereon. Bound thereto was about 1500 RU of a 16-nucleotide Poly dT with biotin bound to the 5' end thereof. […] 20 μL of chymase for analyte, prepared at 0.2 μM, was injected. Solution A was used as a running buffer.

[4] = target: T1, chymase (recombinant); assay: inhibition; SPR ++; details: tags: SIGMA, expressed in yeast; remark: listed apart in the source
Protocol: as §1, with “Here, Suc is a protecting succinyl group, and MCA is a 4-methylcoumaryl-7-amide group; upon cleavage of the C-terminal side of phenylalanine, AMC (7-amino-4-methyl-coumarine) is released. By” for “By”
Chymase inhibitory activity was determined in the same manner as Example 3.

[5] = target: T3, chymase (Homo sapiens, UniProt P23946); assay: Surface plasmon resonance (Biacore T100), aptamer immobilized on SA chip, chymase injected as analyte; assay type: binding; details: Table 1; about 1000 RU nucleic acid immobilized, chymase 0.2 μM analyte, running buffer solution A; compared with 40N
T3 sequence (P23946 22-247): T1 sequence
Protocol: Binding strength is measured using Biacore T100 (manufactured by GE Healthcare). In a method of measurement, the aptamer is first immobilized onto a sensor chip, the amount immobilized being about 1000 RU. 20 μL of a chymase solution for analyte, prepared at 0.2 μM, is injected, and the binding of chymase to the aptamer is detected. An RNA comprising a random nucleotide sequence of 30 or 40 nucleotides is used as a negative control.
as §2, with “5′” for “5'”
The binding activities against chymase of the nucleic acids shown by SEQ ID NO: 38-48 were evaluated by the surface plasmon resonance method. In the evaluations for SEQ ID NO: 38-48, measurements were taken in the same manner as Example 1. Solution C was used as a running buffer.

B1: SEQ 64 (ssRNA)
RNA: GUCACAGAUAGAGUUAAAGUGAC
modifications: 2'-F pyrimidines
IC50 [1]: 20 nM

B2: SEQ 34 (ssRNA)
RNA: GGGACGGUAGGAAUUCUGCCGCAACCCAAUGAAAACGAAGAUAGAGAUAAAUCGAACAUAGAAGAGCGGCCGC
modifications: 2'-F pyrimidines
IC50 [2]: 137 nM

B3: SEQ 62 (ssRNA)
RNA: GGGUUGGAUAGAGUUAAGAACCC
modifications: 2'-F pyrimidines
IC50 [1]: 29 nM

B4: SEQ 29 (ssRNA)
RNA: GGGACGGUAGGAAUUCACGACCGCCCAAAAAAUGGUGACAUUUUAGAAACACCGAACAUAGAAGAGCGGCCGC
modifications: 2'-F U and C
binding result [3]: binds

B5: SEQ 28 (ssRNA)
RNA: GGGACGGUAGGAAUUCAAUUUCUUUCUAUUCUCACCUGAGUAUAUCAGGCACAGUACAUAGAAGAGCGGCCGC
modifications: 2'-F pyrimidines
IC50 [2]: 45 nM

B6: SEQ 57 (ssRNA)
RNA: GCAUUUGAGAUAGAUUUAAACAAACGC
modifications: 2'-F pyrimidines
IC50 [4]: 99 nM

B7: GGGACGGUAGGAAUUCUGCCGCAACCCAAUGAAAACGAAGAUAGAGAUAAAUCGAACAUAGAAGAGCGGCCGC (nucleic acid)
chain: rGrGrGrAfCrGrGfUrArGrGrArAfUfUfCfUrGfCfCrGfCrArAfCfCfCrArAfUrGrArArArAfCrGrArArGrAfUrArGrArGrAfUrArArAfUfCrGrArAfCrAfUrArGrArArGrArGfCrGrGfCfCrGfC
modifications: aptamer
Binding activity as determined using Biacore [5]: equivalent binding activity compared with 40N

B8: SEQ 59 (ssRNA)
RNA: GGGUUAGAUAGAGAUAAAAACCC
modifications: 2'-F pyrimidines
IC50 [1]: 38 nM

B9: SEQ 65 (ssRNA)
RNA: GGCAGAUAGAGUUAAAGCC
modifications: 2'-F pyrimidines
IC50 [1]: 56 nM

B10: SEQ 16 (ssRNA)
RNA: GGGACGGUAGGAAUUCCCAUGACUGAAAAACGUCAGUAAAAUCCGAAAAUCAUAUCAUAGAAGAGCGGCCGC
modifications: 2'-F U and C
binding result [3]: binds

B11: SEQ 7 (ssRNA)
RNA: GGGACGGUAGGAAUUCACCUUUCCAAUUGUGAAAGAAACACAAAAAGAAAUGACAUCAUAGAAGAGCGGCCGC
modifications: 2'-F U and C
binding result [3]: binds

B12: SEQ 51 (ssRNA)
RNA: CGUUACAUAAUGUAUAUACCAGGGUAACUAAACAUAGAAGAGCGG
modifications: 2'-F pyrimidines
IC50 [4]: 24 nM

B13: SEQ 54 (ssRNA)
RNA: UAACUAUGGUUAGAUAGAGUUAAAAACCAUAGAAGA
modifications: 2'-F pyrimidines
IC50 [4]: 51 nM

B14: SEQ 60 (ssRNA)
RNA: GGGUUAGAUAGAGCUAAAAACCC
modifications: 2'-F pyrimidines
IC50 [1]: 26 nM

B15: SEQ 50 (ssRNA)
RNA: GGCAUUCUACAGAUAGAGAUAAAGUAGAAUUUAAC
modifications: 2'-F pyrimidines
IC50 [4]: 138 nM

B16: SEQ 49 (ssRNA)
RNA: GGUUCUACAGAUAGAGAUAAAGUAGAACC
modifications: 2'-F pyrimidines
IC50 [4]: 117 nM

B17: SEQ 31 (ssRNA)
RNA: GGGACGGUAGGAAUUCGUCCCUCAUGUCUAUUUUGCAGAUAGACUUAAAGCAAACAUAGAAGAGCGGCCGC
modifications: 2'-F pyrimidines
IC50 [2]: 155 nM

B18: SEQ 27 (ssRNA)
RNA: GGGACGGUAGGAAUUCCGUCAUCGGUUGCAAAUUGAAAAUACAAAACAAGGACAACCAUAGAAGAGCGGCCGC
modifications: 2'-F U and C
binding result [3]: binds

B19: SEQ 22 (ssRNA)
RNA: GGGACGGUAGGAAUUCCCGACACAAAAUGUGUGAUUAAUUCCGAACAACAAAGUAACAUAGAAGAGCGGCCGC
modifications: 2'-F pyrimidines
IC50 [2]: 105 nM

B20: SEQ 53 (ssRNA)
RNA: GGGUAACUAUGGUUAGAUAGAGUUAAAAACCAUAGAAGACCC
modifications: 2'-F pyrimidines
IC50 [4]: 66 nM

B21: SEQ 33 (ssRNA)
RNA: GGGACGGUAGGAAUUCCUGUCUUUUCCCACGCAACAAAUUACAGAGCUUUGCAAAACAUAGAAGAGCGGCCGC
modifications: 2'-F pyrimidines
IC50 [2]: 145 nM

B22: SEQ 55 (ssRNA)
RNA: CUAUGGUUAGAUAGAGUUAAAAACCAUAG
modifications: 2'-F pyrimidines
IC50 [4]: 55 nM

B23: SEQ 61 (ssRNA)
RNA: GGGUUAGAUAGAUUUAAAAACCC
modifications: 2'-F pyrimidines
IC50 [1]: 23 nM

B24: SEQ 63 (ssRNA)
RNA: GCUACAGAUAGAGUUAAAGUAGC
modifications: 2'-F pyrimidines
IC50 [1]: 23 nM

B25: SEQ 20 (ssRNA)
RNA: GGGACGGUAGGAAUUCAAAAUCAGCUGAUUUGUAAUUUUUUUACACAGGCAAAACACAUAGAAGAGCGGCCGC
modifications: 2'-F pyrimidines
IC50 [2]: 282 nM

B26: SEQ 32 (ssRNA)
RNA: GGGACGGUAGGAAUUCGUCCUCAUGUCUAUUUUGCAGAUAGACUUAAAGCAAACAUAGAAGAGCGGCCGC
modifications: 2'-F pyrimidines
IC50 [2]: 235 nM

Reference: patent US9012420B2, “Aptamer for chymase, and use thereof” (Ribomic Inc., priority 2009, dated 2015)
